Data reported in patent US20260015423A1 (STAIDSON BIOPHARMA, published 2026).
Residue numbers refer to the chain shown, from its start.

B1: humanized anti-human PD-L1 antibody Hum-5 (antibody, human IgG1, kappa, V domains shown)
VH: EVQLVESGGGLVQPGGSLRLSCAASGFTFGGFGMHWVRQAPGKGLEWVSYITGDSSTIYYADRVRGRFTISRDNAKNSLYLQMNSLRAEDTAVYYCVRGPPGTWAYWGQGTLVTVSS
VL: EIVLTQSPATLSLSPGERATLSCRASESVEFYGTTLVQWYQQKPGQAPRLLIYGASNVESGIPARFSGSGSGTDFTLTISSLEPEDFAVYYCQQIRKVPWTFGQGTKVEIKR
B2: humanized anti-human PD-L1 antibody Hum-6 (antibody, human IgG1, kappa, V domains shown)
VH: B1 VH
VL: B1 VL with A47P
B3: humanized anti-human PD-L1 antibody Hum-7 (antibody, human IgG1, kappa, V domains shown)
VH: B1 VH
VL: B1 VL with Y91F
B4: chimeric anti-human PD-L1 antibody Mab 3-16 (antibody, human IgG1, kappa, V domains shown)
VH: DVQLVESGGGLVQPGGSRKLSCAASGFTFGGFGMHWVRQAPEKGLEWVAYITGDSSTIYYADRVRGRFTISRDNPRNILFLQMTSLGSEDTAMYYCVRGPPGTWAYWGQGTLVTVSA
VL: DIVLTQSPASLAVSLGQRATFSCRASESVEFYGTTLVQWYQQRPGQPPKLLIYGASNVESGVPARFTGSGSGTDFSLNIHPVEEDDIAMYFCQQIRKVPWTFGGGTKLEIRR
notes: Mouse variable domains on human IgG1 / kappa constant regions; also called parent antibody Mab 3-16
B5: chimeric anti-human PD-L1 antibody Mab 3-14 (antibody, human IgG1, kappa, V domains shown)
VH: QVQLQQSGAELVKPGTSVKLSCKASGYTFSMYYMFWVKQRPGQGLEWIGQINPSNGRTNFNEKFKSKATLTVDKSSTTAYMQLSSLTSEDSAVYYCTREISYDEFAYWGQGTLVTVSA
VL: DVVMTQTPLSLPVSLGDQASISCRSSQSLVHSNGNTYLHWYLQKPGQSPKLLIYRVSNRFSGVPDRFSGSGSGTDFTLKISRVEAEDLGIYFCSQSAHLPYTFGGGTKLEIKR
notes: Mouse variable domains on human IgG1 / kappa constant regions
B6: chimeric anti-human PD-L1 antibody Mab 3-18 (antibody, human IgG1, kappa, V domains shown)
VH: EVHLQESGPSLVKPSQTLSLTCSVTGDSITSGYWNWIRQFPGNKLEYMGYVSYSGSTYYNPSLKSRISITRDTSKNQYYLQLSSVTTEDTATYYCANYYGDNWPFPLDYWGQGTSVIVSS
VL: DIVMTQAAPSVPVTPGESVSISCRSNKSLLHSNGNTYLYWFLQRPGQSPQLLIYRMSNLASGVPDRFSGSGSGTAFTLTISRVEAEDVGVYYCMQHLEYPFTFGGGTKLEIER
notes: as for B5
B7: chimeric anti-human PD-L1 antibody Mab 3-17 (antibody, human IgG1, kappa, V domains shown)
VH: B6 VH
VL: DIVMTQSPATLSVTPGDRVSLSCRASQSINGNLHWFQQKSHESPRLLIKYASQSISGIPSRFSGSGSGSDFTLRINSVEPEDVGVYYCQNGHGFPYTFGGGTKLEIKR
notes: as for B5
B8: chimeric anti-human PD-L1 antibody Mab 2-04 (antibody, human IgG1, kappa, V domains shown)
VH: QVQLQQSGAELARPGASVKMSCKASGYTFTDYAMHWIKQRPGQGLEWIGFIIPSGDHTDYNQNFKDRATLTADKSSNTAYMQLTSLTPDDSAVYFCARGHGFHLYVMDYWGQGTSVTVSS
VL: DIVMTQSPATLSVTPGDGVSLSCRASQSIADYLHWYQQKSHESPRLLIKYASQSISGIPSRFSGSGSGSDFTLSISSVEPEDVGVYFCQNGHSFPPTFGTGTKLELKR
notes: as for B5
B9: chimeric anti-human PD-L1 antibody Mab 1-01 (antibody, human IgG1, kappa, V domains shown)
VH: EVQLQQSGPELVKPGASVKMSCKASGYSFSGYFLNWVKQSHGKSLEWIGRINPSNDDTVYSQKFKDRATLSLDRSSGTVHMELRSLTSEDSAVYYCARFGHASWYFDVWGAGTTVTVSS
VL: QIVLTQSPAIMSASPGEKVTMTCSARSSVIYMSWYQQKPGSSPRLLIYDTSHLASGVPVRFSGSGSGTFYSLIISRVEAEDAATYYCQQWSTYPLTFGAGTRLELNR
notes: as for B5
B10: chimeric anti-human PD-L1 antibody Mab 1-02 (antibody, human IgG1, kappa, V domains shown)
VH: B9 VH with F106L
VL: B9 VL with V29I, P39T, Y70F, V77M, N106K
notes: as for B5

The binders below were run against T1, human PD-L1 (Sino biological, 10084-H08H) (human, UniProt Q9NZQ7 19-238) (assay: BLI (Octet Red), antibody captured on anti-human Fc sensors, human PD-L1 as analyte).
T1 construct: Bought recombinant protein used as analyte in BLI
T1 sequence (Q9NZQ7 19-238 limits assumed): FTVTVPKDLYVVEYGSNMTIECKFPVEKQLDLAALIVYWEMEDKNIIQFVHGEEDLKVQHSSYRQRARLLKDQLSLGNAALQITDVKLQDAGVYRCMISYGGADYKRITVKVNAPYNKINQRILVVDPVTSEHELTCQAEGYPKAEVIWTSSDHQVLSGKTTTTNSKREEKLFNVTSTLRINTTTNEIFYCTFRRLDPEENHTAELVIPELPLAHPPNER

Binder	Kd [nM]	koff [s⁻¹]	kon [M⁻¹ s⁻¹]
B1	0.126	3.92e-05	310000
B2	< 0.001	< 1e-07	292000
B3	< 0.001	1.28e-07	302000
B4	–	1.19e-07	286000

These binders were tested against T2, Europium-conjugated human PD-L1 (human, UniProt Q9NZQ7 19-238, limits assumed, Europium conjugate (site not stated)) (assay: HTRF blocking assay: Europium-human PD-L1 with Alexa-647 human PD-1 as the blocked ligand, antibody titrated).
T2 construct: also called Europium-human PD-L1; PD-L1 (HTRF donor protein)
T2 sequence (Q9NZQ7 19-238 limits assumed): as above

Binder	IC50 (read off the curve) [µg/mL]
B5	~0.2
B6	~0.2
B7	~0.2
B4	~0.2

Biological target: T2, Europium-conjugated human PD-L1
Assay: as above
Remark: another data set of the same source

Binder	IC50 (read off the curve) [µg/mL]
B8	~0.3

What follows are binders tested against T3, cynomolgus PD-L1 (Sino biological, 90251-C08H) (cynomolgus, UniProt G7PSE7 19-238) (assay: BLI (Octet Red), antibody captured on anti-human Fc sensors, cynomolgus PD-L1 as analyte).
T3 construct: Bought recombinant protein used as analyte in BLI; not shown: C-terminal polyhistidine tag of the bought product (Sino Biological 90251-C08H)
T3 sequence (G7PSE7 entry or part of it C08H C08H limits assumed): as the sequence (Q9NZQ7 19-238 limits assumed) above, with A33T, A34S, S62N, R68Q, Q82R, F173L, T185A, T192I, H215L counted along it

Binder	Kd [nM]	koff [s⁻¹]	kon [M⁻¹ s⁻¹]
B1	0.915	8.65e-05	94500
B2	0.00208	1.33e-07	63900
B3	≤ 0.0011	< 1e-07	73100
B4	0.863	8.34e-05	96700

These binders were tested against T2, Europium-conjugated human PD-L1 (assay: HTRF competition assay: Europium-human PD-L1 with Alexa-647-conjugated Mab 3-16 as competitor, unlabelled Mab 3-16 titrated).

Binder	IC50 (read off the curve) [µg/mL]
B4	~0.2

What follows are binders tested against human PD-L1 on cells (Raji cell line expressing human PD-L1; human PBMCs) (human, UniProt Q9NZQ7 19-290) (assay: cell-based or functional assay).
Sequence of human PD-L1 on cells (Raji cell line expressing human PD-L1; human PBMCs) (Q9NZQ7 19-290): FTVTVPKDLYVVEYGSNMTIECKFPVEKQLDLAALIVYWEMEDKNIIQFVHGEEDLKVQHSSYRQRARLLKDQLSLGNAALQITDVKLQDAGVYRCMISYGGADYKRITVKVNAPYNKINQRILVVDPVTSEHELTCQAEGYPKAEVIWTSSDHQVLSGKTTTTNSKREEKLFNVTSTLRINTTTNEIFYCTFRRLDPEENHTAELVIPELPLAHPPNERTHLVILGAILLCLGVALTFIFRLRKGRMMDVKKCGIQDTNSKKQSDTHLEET

Binder	EC50(nM), IL-2 production by SEB stimulated human PBMCs [nM]
B4	5.41

Biological target: T1, human PD-L1 (Sino biological, …)
Assay: BLI (Octet Red), antibody captured on anti-human Fc sensors, human PD-L1 as analyte
Remark: another data set of the same source

Binder	Kd [nM]	koff [s⁻¹]	kon [M⁻¹ s⁻¹]
B8	0.279	0.000241	864000
B5	0.124	4.05e-05	327000
B6	1.16	0.000408	351000
B7	1.5	0.000626	417000
B4	0.146	6.17e-05	423000
B9	13	–	–
B10	16	–	–

Biological target: T2, Europium-conjugated human PD-L1
Assay: HTRF competition assay: Europium-human PD-L1 with Alexa-647-conjugated Mab 3-16 as competitor, unlabelled Mab 3-16 titrated
Remark: another data set of the same source

Binder	IC50 (read off the curve) [µg/mL]
B4	~0.2

Each binder was assayed against T1, human PD-L1 (Sino biological, …) (assay: BLI (Octet Red), antibody captured on anti-human Fc sensors, human PD-L1 as analyte; Table 8 run, alongside humanized Hum-5/6/7).

Binder	Kd [nM]
B4	< 0.001

Each binder was assayed against T2, Europium-conjugated human PD-L1 (assay: HTRF competition assay: Europium-human PD-L1 with Alexa-647-conjugated Mab 3-16 as competitor, unlabelled antibody titrated).

Binder	IC50 (read off the curve) [µg/mL]
B1	~0.1
B2	~0.1
B3	~0.1
